From patent publication US20240400640A1

Target: FcRn (human) (UniProt P55899)
Test: Lumit FcRn binding immunoassay (competition); pH 6.0

FcRn (human), sequence (P55899 24-297, chain 1 of 2): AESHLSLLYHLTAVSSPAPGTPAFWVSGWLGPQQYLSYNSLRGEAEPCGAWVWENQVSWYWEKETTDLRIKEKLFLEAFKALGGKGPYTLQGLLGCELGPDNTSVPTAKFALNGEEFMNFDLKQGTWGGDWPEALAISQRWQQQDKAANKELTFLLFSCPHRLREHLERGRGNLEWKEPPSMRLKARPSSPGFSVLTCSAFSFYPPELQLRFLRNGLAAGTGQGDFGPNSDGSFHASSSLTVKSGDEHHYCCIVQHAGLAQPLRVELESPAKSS
FcRn (human), sequence (main, as listed by the source, chain 2 of 2): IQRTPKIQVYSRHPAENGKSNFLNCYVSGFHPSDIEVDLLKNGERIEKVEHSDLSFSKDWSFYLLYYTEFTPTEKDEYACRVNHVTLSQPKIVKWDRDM

hIgG1
IC50: 0.0128 µM
